Laboratory results as given in PMC5146998.

Target: CTF2 mutant MUT9 (3xFLAG-tagged) (chicken) (UniProt Q90762)
Assay: co-IP

Sequence of UniProt Q90762 (Q90762 637-790, change not shown): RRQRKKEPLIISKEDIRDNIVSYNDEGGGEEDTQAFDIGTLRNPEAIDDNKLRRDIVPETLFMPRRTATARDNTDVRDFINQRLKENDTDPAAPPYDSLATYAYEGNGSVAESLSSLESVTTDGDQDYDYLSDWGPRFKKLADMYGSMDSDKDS

percent inhibition of β-catenin co-immunoprecipitation against wild-type CTF2: 87.5%
Substance: β-catenin (endogenous, LMH cells) (natural protein)
